B1: ICAM-R/IgG chimera with domain 3 deleted (Fc fusion)
chain: QEFLLRVEPQNPVLSAGGSLFVNCSTDCPSSEKIALETSLSKELVASGMGWAAFNLSNVTGNSRILCSVYCNGSQITGSSNITVYGLPERVELAPLPPWQPVGQNFTLRCQVEGGSPRTSLTVVLLRWEEELSRQPAVEEPAEVTATVLASRDDHGAPFSCRTELDMQPQGLGLFVNTSAPRQLRTFLGPIVNLSEPTAHEGSTVTVSCMAGARVQVTLDGVPAAAPGQTAQLQLNATESDDGRSFFCSATLEVDGEFLHRNSSVQLRVLYGPKIDRATCPQHLKWKDKTRHVLQCQARGNPYPELRCLKEGSSREVPVGIPFFVNVTHNGTYQCQASSSRGKYTLVVVMDIEAFSSH
notes: also called domain 3 deletion chimera; not shown: human IgG1 hinge, CH2 and CH3
B2: ICAM-1/IgG chimera (Fc fusion, UniProt P05362 28-480, looked up, not shown: a dimerising Fc or GST)
chain: QTSVSPSKVILPRGGSVLVTCSTSCDQPKLLGIETPLPKKELLLPGNNRKVYELSNVQEDSQPMCYSNCPDGQSTAKTFLTVYWTPERVELAPLPSWQPVGKNLTLRCQVEGGAPRANLTVVLLRGEKELKREPAVGEPAEVTTTVLVRRDHHGANFSCRTELDLRPQGLELFENTSAPYQLQTFVLPATPPQLVSPRVLEVDTQGTVVCSLDGLFPVSEAQVHLALGDQRLNPTVTYGNDSFSAKASVSVTAEDEGTQRLTCAVILGNQSQETLQTVTIYSFPAPNVILTKPEVSEGTEVTVKCEAHPRAKVTLNGVPAQPLGPRAQLLLKATPEDNGRSFSCSATLEVAGQLIHKNQTRELRVLYGPRLDERDCPGNWTWPENSQQTPMCQAWGNPLPELKCLKDGTFPLPIGESVTVTRDLEGTYLCRARSTQGEVTRKVTVNVLSPRYE
notes: also called ICAM-1/Ig fusion protein

Key:
[1] = biological target: CD18-independent counter-receptor for ICAM-R on Jurkat cells; assay: Jurkat cell adhesion to plate-bound shICAM-R, peptide 1-2 mg/ml
[2] = biological target: T1, LFA-1 (CD11a/CD18) on cells (human, UniProt P20701 26-1170; P05107 23-769); assay: JY cell adhesion to plate-bound chimera
T1 construct: whole, on cells; On SKW3, JY, HL-60 cells, neutrophils and transfected CHO and COS cells; also called CD18/CD11a

[3] = biological target: T2, VLA-4 (alpha4/beta1) on cells (UniProt P13612 34-1032; P05556 21-798, limits assumed); assay: adhesion of transfected COS cells to immobilized chimera (20 ug/ml coat)
T2 construct: whole, on cells; On Jurkat cells, T cells and COS cells transfected with alpha4 and beta1 cDNAs; also called α4/β1; α4β1

T1 sequence (P20701 26-1170, chain 1 of 2): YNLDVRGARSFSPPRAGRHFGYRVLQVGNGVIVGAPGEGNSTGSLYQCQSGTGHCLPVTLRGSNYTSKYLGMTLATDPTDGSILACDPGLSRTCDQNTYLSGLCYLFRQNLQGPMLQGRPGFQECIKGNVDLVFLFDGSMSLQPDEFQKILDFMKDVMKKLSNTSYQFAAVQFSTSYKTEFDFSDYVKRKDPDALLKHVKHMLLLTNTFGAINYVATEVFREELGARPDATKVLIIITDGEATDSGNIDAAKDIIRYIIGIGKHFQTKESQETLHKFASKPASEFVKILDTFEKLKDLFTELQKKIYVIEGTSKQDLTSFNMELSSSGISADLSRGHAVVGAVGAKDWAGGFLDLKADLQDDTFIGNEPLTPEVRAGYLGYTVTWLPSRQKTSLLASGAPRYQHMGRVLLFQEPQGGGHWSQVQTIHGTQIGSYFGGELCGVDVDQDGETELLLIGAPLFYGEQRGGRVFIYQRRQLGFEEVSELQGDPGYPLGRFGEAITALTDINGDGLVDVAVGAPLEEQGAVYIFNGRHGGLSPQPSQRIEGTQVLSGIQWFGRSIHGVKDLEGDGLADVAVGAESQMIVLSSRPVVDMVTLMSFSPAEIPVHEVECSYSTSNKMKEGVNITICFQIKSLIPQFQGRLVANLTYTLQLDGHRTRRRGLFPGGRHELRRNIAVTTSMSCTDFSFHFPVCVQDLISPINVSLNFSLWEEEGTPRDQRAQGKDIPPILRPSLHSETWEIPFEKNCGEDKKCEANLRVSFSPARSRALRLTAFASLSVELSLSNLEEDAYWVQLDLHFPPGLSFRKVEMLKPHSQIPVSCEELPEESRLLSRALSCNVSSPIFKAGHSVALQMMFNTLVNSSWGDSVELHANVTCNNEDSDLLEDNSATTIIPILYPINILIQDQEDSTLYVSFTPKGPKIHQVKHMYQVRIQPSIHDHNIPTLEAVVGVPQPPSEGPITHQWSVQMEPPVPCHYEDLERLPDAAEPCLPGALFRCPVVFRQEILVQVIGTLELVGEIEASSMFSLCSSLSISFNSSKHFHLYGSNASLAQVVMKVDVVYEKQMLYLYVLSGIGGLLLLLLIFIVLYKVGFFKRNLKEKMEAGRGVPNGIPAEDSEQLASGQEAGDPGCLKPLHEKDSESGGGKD
T1 sequence (P05107 23-769, chain 2 of 2): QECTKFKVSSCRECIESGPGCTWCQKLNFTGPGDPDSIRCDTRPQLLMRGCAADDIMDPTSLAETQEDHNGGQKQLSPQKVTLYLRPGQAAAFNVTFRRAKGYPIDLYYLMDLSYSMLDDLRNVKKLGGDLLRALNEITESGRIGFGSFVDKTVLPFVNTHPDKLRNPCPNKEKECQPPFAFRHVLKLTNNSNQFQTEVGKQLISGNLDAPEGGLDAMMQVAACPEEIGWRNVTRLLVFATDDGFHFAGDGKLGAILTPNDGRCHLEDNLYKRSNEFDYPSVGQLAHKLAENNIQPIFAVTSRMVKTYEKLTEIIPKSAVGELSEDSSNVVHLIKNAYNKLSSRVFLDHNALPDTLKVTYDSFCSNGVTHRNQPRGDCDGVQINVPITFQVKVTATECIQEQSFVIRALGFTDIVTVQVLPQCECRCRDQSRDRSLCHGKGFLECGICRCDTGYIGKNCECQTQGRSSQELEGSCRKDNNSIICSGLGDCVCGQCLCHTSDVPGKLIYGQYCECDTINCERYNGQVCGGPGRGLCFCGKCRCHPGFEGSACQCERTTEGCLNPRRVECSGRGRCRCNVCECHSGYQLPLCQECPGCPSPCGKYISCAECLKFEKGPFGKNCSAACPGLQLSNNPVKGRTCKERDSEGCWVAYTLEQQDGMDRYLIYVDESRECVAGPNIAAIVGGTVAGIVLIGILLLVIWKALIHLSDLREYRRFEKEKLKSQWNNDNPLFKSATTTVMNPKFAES

Binder | % Inhibition of cell binding to shICAM-R [1] | also measured
DGQST (also called ICAM-1 70-74) [ICAM-1 domain 1 peptide DGQST, residues 70-74] | 9% | 
B1 |  | binding result [2]: binds
GDQML (also called ICAM-R 230-234) [ICAM-R domain 3 peptide GDQML, residues 230-234] | 36% | 
GDQRL (also called ICAM-1 228-232) [ICAM-1 domain 3 peptide GDQRL, residues 228-232] | 22% | 
GERREA (also called ICAM-R 271-276) [ICAM-R domain 3 peptide, residues 271-276] | 11% | 
B2 |  | binding result [3]: no binding
NGSQI (also called ICAM-R 72-76) [ICAM-R domain 1 peptide NGSQI, residues 72-76] | 17% | 
EKIALET (also called ICAM-R 32-38) [ICAM-R domain 1 peptide, residues 32-38] | 10% | 
